Source: article PMC12615762

Substrate: NCCC(=O)N[C@@H](Cc1cnc[nH]1)C(=O)O
Test: purified protein
Conditions: SAM

B1: carnosine N-methyltransferase (CNMT, CARNMT1, C9orf41) (Homo sapiens) (protein)
chain: MQRRRRPPPPTSRLPEGCGGGGGGSEEVEVQFSAGRWGSAAAVSAAAAAATRSTEEEEERLEREHFWKIINAFRYYGTSMHERVNRTERQFRSLPANQQKLLPQFLLHLDKIRKCIDHNQEILLTIVNDCIHMFENKEYGEDGNGKIMPASTFDMDKLKSTLKQFVRDWSETGKAERDACYQPIIKEILKNFPKERWDPSKVNILVPGAGLGRLAWEIAMLGYACQGNEWSFFMLFSSNFVLNRCSEINKYKLYPWIHQFSNNRRSADQIRPIFFPDVDPHSLPPGSNFSMTAGDFQEIYSECNTWDCIATCFFIDTAHNVIDYIDTIWKILKPGGIWINLGPLLYHFENLANELSIELSYEDIKNVVLQYGFKVEVEKESVLSTYTVNDLSMMKYYYECVLFVVRKPQ
- Km: 4.631 µM
